According to PMC6926487:

Biological target: GST-Rac1A, active (GTPγs-bound), P34144
Test: pull-down (GST-Rac1A), immunoblot quantification
Conditions: chain shown with the change, mean ± SEM, n = 3, parent: 1.9% ± 0.9% SEM

B1: GFP-WASP (Dictyostelium Wiskott-Aldrich syndrome protein, wild type) I173A; F179A (protein)
chain: MGSPTISDQEKSQVAFIAGSSSDIHSTTVARLYEGRQGRWEFMAVGIVSVVSNRVDKTNYIKVFDLKANYRIIFEQEIYDTFEFQKQRDFFFAFEGDSCVYGLSFADVTEAAEFYGQLLNCKQGNIGKTAAINPNTSSTKITASTPAPKVEKKKEKKGFMSKFFSSEEKDLEASAPTNAKHESHIGWDPENGFDIKNIPPDWRKLFQSAGIKKSELKNAETAQFIVNIIGEQMVGGSAPPPTQPGRSAPPAPPSSNQPGRSAPPPPPSVGKSAPPPPPPSHKTPAAPPSGGGAPPPPPPPPPPSSGPPPPPPPMASAPPSSGGGGASGGGRNDLLASIRSGASLKAVDKTNPLPDIQSLGNEGSRSLADTLAAAMANRRGGMREDDEEDDDDDDEWSDY
In the case of B1, the response (% binding to GTPγS-loaded Rac1A) is reported as 0.1.
